Source: publication PMC3819363, “Post-Transcriptional Regulator Hfq Binds Catalase HPII: Crystal Structure of the Complex” (PLoS ONE, 2013)

Target: the molecule itself
Test: SDS-PAGE; samples in SDS buffer on a polyacrylamide gel; bands of the dissolved crystals identified by PMF MALDI-TOF; crystals heated at ~95°C for 5 min

B1: catalase HPII (endogenous, Escherichia coli) (enzyme, Escherichia coli (endogenous in E. coli), UniProt P21179 1-753, looked up)
chain: MSQHNEKNPHQHQSPLHDSSEAKPGMDSLAPEDGSHRPAAEPTPPGAQPTAPGSLKAPDTRNEKLNSLEDVRKGSENYALTTNQGVRIADDQNSLRAGSRGPTLLEDFILREKITHFDHERIPERIVHARGSAAHGYFQPYKSLSDITKADFLSDPNKITPVFVRFSTVQGGAGSADTVRDIRGFATKFYTEEGIFDLVGNNTPIFFIQDAHKFPDFVHAVKPEPHWAIPQGQSAHDTFWDYVSLQPETLHNVMWAMSDRGIPRSYRTMEGFGIHTFRLINAEGKATFVRFHWKPLAGKASLVWDEAQKLTGRDPDFHRRELWEAIEAGDFPEYELGFQLIPEEDEFKFDFDLLDPTKLIPEELVPVQRVGKMVLNRNPDNFFAENEQAAFHPGHIVPGLDFTNDPLLQGRLFSYTDTQISRLGGPNFHEIPINRPTCPYHNFQRDGMHRMGIDTNPANYEPNSINDNWPRETPPGPKRGGFESYQERVEGNKVRERSPSFGEYYSHPRLFWLSQTPFEQRHIVDGFSFELSKVVRPYIRERVVDQLAHIDLTLAQAVAKNLGIELTDDQLNITPPPDVNGLKKDPSLSLYAIPDGDVKGRVVAILLNDEVRSADLLAILKALKAKGVHAKLLYSRMGEVTADDGTVLPIAATFAGAPSLTVDAVIVPCGNIADIADNGDANYYLMEAYKHLKPIALAGDARKFKATIKIADQGEEGIVEADSADGSFMDELLTLMAAHRVWSRIPKIDKIPA
notes: catalase HPII of Escherichia coli, product of the katE gene, endogenous protein, printed molecular weight 84 kDa; residues 27-753 and one heme resolved in the map; Homotetramer, one heme per subunit; also called HPII tetramer; source: endogenous, E. coli overexpressing PomAB mutants
For B1, which “stoichiometry N” value is on record?
The value was 2 subunits.
